Assay: label from the status in PepcDB records

| Sequence | protein production |
| --- | --- |
| MSRNRVMSIDFQQLPHAGIRSLIPYVPGKSIEELAKEKGITDIIKLASNENPLGCSPLALSVIQTMSSHYIATYPSPWNHPLMSKLASYLKVKPEQLFLSNGSDYLFNILLNCFALHTDRHILTHDYAFSTYAIQANSLQIPINSVPIGHNWEVNITDIVNACNQQTGIIFIANPNNPTGVLIQQEEIKYLLEQIPKSTLLVLDEAYYEFAASQLTVNSLDWLEEHPNLVVTRTFSKIYGMAGLRLGYAIANPSIINILKRVQLPFIVNQVALAAAYAAIDDDDFIQSSLKMNNEGMLQLQAGFNELNIKYLPSSCNFLTFDCEEDSMALYNYLLDNGIIVRPLHAYKMNNFIRVTIGTKEQNSRFLTALKNFYL | failed |
| MSRPDDIDVRPIAEAETADWIRALNTGFLRSPEVSEREVADRSSYLVPARTLGAFDNGRCVATFRSFPQELTAVGGASVPADAISNVTVTATHRRRGLLTRMMAQDLAAAKERGDVVATLIAAEYPIYGRYGFGAATHSTEWTID | failed |
| MSRPSVNRSGEMEIFAKAVELGGFSAAARHYRMTPSAVSKLVLRLEERLGVRLVNRSTRKLQLTPEGHAFYERTVRILADIDEAERSASAGESPVGRVRLNVNASFGTHVLMPLVPEFRAHFPAVSLDIVMTDAVVDLMEARADVAIRAGPLKSSTLIARKLGATRMMIVAAPSYIERYGMPSSLEELKGHERLGFCYARAVDGWPLRTDGETVVLPASGAVQVSDGEGLRQLALAGAGLARLAEFTVREDVSARRLVPVLEDLNPGDLEEVHAVYLGQGGALPARVRAVLDFLARHARITPGQDAGRRRTSPIPAPA | failed |
| MSRQAEDLMVRTLSDASSLFGKERYKKALEKLDKAEKLAEKTKRTDILCRVLLQKGAVMNSMGKPDEGQDLYDKALDIYRTSNLNEQESSVLKHTLSNTFSELAKHFKMVDSIENAEKCYLNEIKVYEILLEKDPEDEDSNLEIARVFKAIGDLYEYFKPEKMDPETERQYYEKILDIREKAFELLPDSETYIYDLAHALGKLVDYYIIRQDYKSAIQFQERVVEVMEELIDLLANWKDLKAKSNAYDKLGSLYAEIGEEELAQEQYSKALEYYGMIFDDELWPLSVKAMLASELMERGKTLLLLKKYESAKESMDVALDFLEGVDKEEMEDSTEESLDLASVILGEGYEEESEDSGYLAELAGIFREYAKTLSDLNRNEEAEEFTAKSEKILRKLA | failed |
| MSRRAGHNGRPLLEVPMLLRGLTWLVLFQLLGTGLNVLLLPMLPGPIIGLVLLFGYFLARGEVGKPVNEAAGSLLRYLPLLLVPAAVGVMAYAREIAADFWAIVGALVLSLLLSFLFAGWMMQKLIDRQQRRREES | failed |
| MSRSDNGGEDKGLRITRREFLAAAGAGAAAFIVGAVVGSTAFPREKEVVKPGPTQTVTATATETATVTETQTQVQLVEKKYPKVKIANVSELREGQPVFKEYIGHRIVVIKLGEEAVNGVGPDKDIVAFSMLCTHMGGFLIFDGNTKTLICPLHFSQFDPSRGGQPVVGHATEYLPQVILEYDEASGDIFAVGFTALVYGRYDNLQGVKA | failed |
| MSRSPEQDSDWMTGVGDSAAGESARVARLVRVAQHIEMHADEALTLSSLAKVAALSPSRLQKQFKAAFGVSPKAYQDAVRMRRFKQSLKDGSKVTDAIFASGFGSVSRVYGEANRSIGMPPRAYRAGGAGEVIVYAGRTTALGLMMMAATERGVCFVEFGDDEASLVGRLRSEFPKAELTASPARNAPELDAWMEALDQHISAGAPRPDLPLDMRGTAFQVKVWQFLLSIREGDVLSYSEVAARIDKPRAVRAVASACGKNRIGVLIPCHRVLRGDGGLGGYRWGLERKRALLEAERRSVTRE | failed |
| MSRSVPDRWNMHKPMLCDSLPTASRTAAAILNLAQREDVTAEALAQLIQTDPALTGRILRFANAPAQGTRRPVASVIDAIDLVGLPAVRQFALSLSLIDAHREGRCEAFDYAAYWQKSLARAVALQSITAQASTVAPKEAFTLGLLADVGRLALATAWPEEYSECLRKADGEALIALERERFATDHDELTRMLLTDWGFPQVFIDALQLSQQDEIRDEGRTGRFARQLALAQHIADHRLAEEPRRAALSPLLRAEARRCGLGDEDLARLLADPPADWLDWTRTIGLPGDAPTGGAEPSRPPPQTDEKLHVLLADDDPIMLARLSRQLEADGHHVASRRDGETALAYALEHQPEMVITDWHMKPMNGLELCRALRESALGGNVYIVMLTASESEDALVEAFGAGIDDYVIKPPSVRVLKARIRAGQRIITLHKKLARERKEIERYSSELAAANRRLELMAHTDQLTGLPNRRYAMDRLEREWAQARTFDRPLSIMMLDLDWFKSINDSLGHDAGDQALVHAARVMRETVRTSDVVCRMGGEEFLIIIPDTAGPAAIQTAERVRSAVEQQQPAKLKLSRPLTASIGVADSTSAPSLKDLLLKADNALYQVKQNGRNGVRYAGLLEHHHHHH | not failed |
| MSRTIAETPRPAVASMSSGCIPPHHRPDTLKQRWGTPAAVCLLVTCLFAMTLLTTGCKPPRRTPPTLPDRPDMATVEQPVVPPATVDGKDLDAPQTPKERIALALRLLDDGGDGADPTQAVQLIEQDATTGYAPAQDLLARLSLEGYGTAKDPARAFALAIEAARQGLPDAQRLAGTMYTLGLGTARDLEQGMRWLREAADAGDGEAAAMVADYYRQGLGVERNDTEAFLWTHRAAERGVKRAALWLGLHYHYGVGTPADQKQAFALLRPFADEGDAEALTIIALLLHKGEGVAQDRKAALRYFEKGAAAGDPVAQLDLGVLYHQGDGVTRDMDKARGLFRQCAEGGNARCMTLYASMLEEGEGGPSDPAEALAWYMVASMAGDDDATPFLDDLRSRITAEQAAQGKVRATAIIRSLTASPAADEASRQSSGQTAGQASGHASGQTPESTSARTSAPVPSALPREAAGKRPTVLP | failed |
| MSRVKILDEETISHIAAGEVVERAASVVKELVENAVDADAQIIRIGISADKTGITKISVTDDGIGMDFDDALLAFRQHATSKISRPEDLDGITTLGFRGEALASIAAISKVTFTTKERGSPSPEAARVVIHGGELISHSAVGAPEGTSVLIDALFYNTPARRKFQKSVPTELSHVYDMVERIALSNRNISFVLLYNGKERFQTFGTGSYPDVIAAVFGSTFSKELTPVSGSFGPVKIDGWITRPGSEMKTTQTRFYLSINGRQVTSRQLQWAIREGYGTLLPKGMYPAAFLDIVLDPRDVDVNVHPTKREVRLSREREVMRCVQDAVYTSLHEERVFSTAPMPTLARETITTLPVEIVGEPVPVYAGKQEMHEARQAPLKQTEKQLRRTESADLPETDLFVPEVLGQIGDTYILAKNESGDLIVVDQHAAHERIMYDQLLARSSSAEAGQELIVPQPITLSKKETAALPDLLDVLAAAGYLLEPFGKDVWMVRSVPVVSSTLGDPDTIHAILDAALDGVGNTDEVLDRVLKTAACRAVVKGNTPLTIEQMQRLLRQLMATKSPYTCPHGRPTTIVLSKSRLAGMFLRT | failed |
| MSRVPEPSVFLVVDEAKRKARERGVGLIDLSIGSTDLPPPEAPLKALAEALNDPTTYGYCLKSCTLPFLEEAARWYEGRYGVGLDPRREALALIGSQEGLAHLLLALTEPEDLLLLPEVAYPSYFGAARVASLRTFLIPLREDGLADLKAVPEGVWREAKVLLLNYPNNPTGAVADWGYFEEALGLARKHGLWLIHDNPYVDQVYEGEAPSPLALPGAKERVVELFSLSKSYNLAGFRLGFALGSEEALARLERVKGVIDFNQYAGVLRMGVEALKTPKEVVRGYARVYRERALGMAEALKGVLSLLPPRATMYLWGRLPEGVDDLEFGLRLVERGVALAPGRGFGPGGKGFVRIALVRPLEELLEAAKRIREALD | not failed |
| MSSATKSSPATGGYLHYATLAPWKTLLRTRAYPGSLAGGSEATEATVAMELAEDWLVESLRLYQDFHAFDLSGATRVLEWVGEKGVFVAGYESLKKNEILHLILPLRLSVKENQGLYPERDFKVRHGGFSDRAVFDLKHVPDTRLLVTSGLPGCYIQVWQIREDNDVIEAVSTIDVQDKEESLWPRVSIFCSAAPGILHGARLSGLRTVDVESRKITYSSDTTDSESLSSLQVLDADTFAFCGTSGRLGLVDTRQKWAPLETVSPRAGSSGERWCAEVRSKGQGPGPCIASLGSDGQLCLLDPRNLRDPVSSAQCPVFKSSPDPELLRVTWAPGLDNCLAISGFDGTVQIYDVTSWDGKKTQVEALFIHKGHIFLDGNEVESAPLVTTHTWHPSKPRTLLSAASDAALHVWDWVDLQAS | failed |
| MSSEAVDATTLVIIPTYNELENLPLIVDRVRTATPDVHVLIVDDNSPDGTGERADKLAADDDHIFVLHREGKGGLCAAYMAGFQWGLERDYQVLCEMDADGSHAPEQLHLLLAEITNGADLVIGSRYVPGGRVVNWPKNRWLLSKGGNVYISVALGAGLTDMTAGYRAFRREVLEALPLDELSNAGYIFQVEIAYRAVEAGFDVREVPITFTEREIGESKLDGSFVKDSLLEVTKWGLKHRGGQAKELSKEMVGLLNYEWKHFKKRNTWLLEHHHHHH | failed |
| MSSEHSANGGPASAYGKPTFARASTPLPIQSAHMASDPIQITPSLTIPPSELVERFVRASGAGGQNVNKVSTAVELRFDVAGSPSLPEPLRARLLSRRDRRMTAEGVLVIDAQRFRTQDRNRDDARERLAEIISACLSVPKRRVATKPSHGAKLRRLDAKRERSHIKRGRSASHWE | failed |
| MSSERVLSNARVVSAERVFVGSVLLRDGLIAAVDEGRSHLAGAEDLGGDYLLPGLVELHTDNLEKHMTPRPGVDWPSASAVLAHDAQIVSAGITTVFDALSIGDVNPKGKRMQQLPKMLEAIGEAAASGDARADHRLHLRCEVSHPQTLEVFRELVEHPLVQLVSVMDHAPGQRQFARLEKYREYYQGKYHLSDAEMDAFIVEQVANSERYSDAARAAIVDVCQGRGLSVASHDDATLAHVRESAGYGMAIAEFPTTVEAARASHEHGLQVLMGAPNVVRGGSHSGNVAAAQLAGIGVLDILSSDYYPASLLHAALLLAGEHSEYDAIRYDLPRAVAMVSRTPALAAGLTDRGEIRVGLRADLLQARALGNNQPVVRQVWRGGQRVF | failed |
| MSSFLRPAVSGQDPFTTGNYRAISSHLAITPPVSVVIPAMNEAENLPYVFKSLPDWIHEVVLVDGNSTDGTVEVARELWPDVKVVEQRGKGKGDALITGFEACTGDIIVMVDADGSADGQEIVSYVSALVSGADFAKGSRFANGGGTSDMTPIRKLGNRVLCAAVNAKFGARYTDLCYGYNAFWRHCLDQIDLDCTGFEVETLMNIRVVKAGLKVQEIPSHEYLRIHGASNLRAVRDGLRVLKVILKERSNRRALRSRPHAMQLNSGQGEVSLEHHHHHH | not failed |
| MSSGKVIVYGGKGALGSAILEFFKKNGYTVLNIDLSANDQADSNILVDGNKNWTEQEQSILEQTASSLQGSQVDGVFCVAGGWAGGSASSKDFVKNADLMIKQSVWSSAIAAKLATTHLKPGGLLQLTGAAAAMGPTPSMIGYGMAKAAVHHLTSSLAAKDSGLPDNSAVLTIMPVTLDTPMNRKWMPNADHSSWTPLSFISEHLLKWTTETSSRPSSGALLKITTENGTSTITPQ | not failed |
| MSSHPPIRSYVLRQGYFSNAQRHAYESLLPRYGIPLTEEPVDLDSIFGRTAPGILEIGSGMGETTAEIARQHPEKDFIAIEVHAPGIGSLLGQIEKHRLTNLRIIPHDAKLVLQQMFTSESLDGIHIFFPDPWPKARHHKRRLIQPDFVSLLCDRLKPGGYLHIATDWEDYATHILHVLRSEERFVNTAVDYAARPAYRPLTKFEQRGMKLGHTIRDIIFTRTALEHHHHHH | failed |
| MSSHPYVTQQNTPLADDTTLMSTTDLQSYITHANDTFVQVSGYTLQELQGQPHNMVRHPDMPKAAFADMWFTLKKGEPWSGIVKNRRKNGDHYWVRANAVPMVREGKISGYMSIRTRATDEE | failed |

Source: a protein production outcome set (Wang et al. 2014)
